# The supplement of paper PMC10126150
# ± gives the standard deviation of the averaged measurements.
# Tested on: ATP
# Assay: switch fluorescence ratio, 500 uM ATP over buffer (Cy3 cluster intensity, sum of 5 cycles each) (fold (ratio)); higher = stronger signal-on switching upon ATP binding; sequences stand for … in TCGTCGGCAGCGTCAGATGTGTATAAGAGACAGTTTTTTTTTTTTTTTTTTTTTTTTT…TC
# Conditions: aptamer strand: ATP DNA aptamer (quencher-CACCTGGGGGAGTATTGCGGAGGAAGG + anchor), 100 nM annealed; ATP concentration: 500 uM
# How it was run: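 Five buffer/ATP imaging cycles were run on Cy3-labelled switching-strand clusters on a modified Illumina MiSeq flow-cell, with NaOH stripping and re-annealing between cycles. In each cycle, clusters annealed to 100 nM quencher-labelled ATP aptamer were imaged in selection buffer, then after 15 min with 500 uM ATP at 22 °C. Per cluster, the fluorescence ratio is summed target-cycle over summed buffer-cycle Cy3 intensity, averaged per switch-domain sequence. Only clusters within 100-1000 RFU were kept.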
# 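Further: ATP exposure 15 min at 22 °C before imaging.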
row,Sequence,switch fluorescence ratio
1,GGATTGGTCC,1.14 ± 0.16
2,CGGAAGTTGA,1.02 ± 0.067
3,GTGTTTTAGC,1.009 ± 0.0098
4,GGGAAAAAGC,0.993 ± 0.04
5,CGATTTTCGT,0.998 ± 0.044
6,TAGTGATTGG,1 ± 0.052
7,AGATGATATA,0.999 ± 0.013
8,GACGGGGGAT,1.081 ± 0.0031
9,CTGGTTCGGT,1.01 ± 0.037
10,TATGATATGC,1.032 ± 0.0011
11,GGGTTTGTGG,0.984 ± 0.023
12,TTAGTTGGGG,1.01 ± 0.032
13,TCAGTGCGGG,0.98 ± 0.047
14,TGTGTTCTGG,0.986 ± 0.011
15,CGTTGGTTCC,1.034 ± 0.0058
16,ATGAAGTGGA,0.9555 ± 0.0093
17,TATGGAGGGG,0.991 ± 0.032
18,AAGGTTTCC,1 ± 0.049
19,CCATGCAGGC,1.28 ± 0.13
20,CCTCTGGGGA,1.82 ± 0.94
21,GCCGGGGACC,0.98 ± 0.031
22,GGTTTTCCGT,1.07 ± 0.051
23,TGGCCTGGGG,0.979 ± 0.025

row,Sequence,switch fluorescence ratio
1,GCTTTGATGT,0.9839 ± 0.0032
2,TTGTTTGTT,0.994 ± 0.019
3,GCCGAGGGGT,1.037 ± 0.008
4,GCGTTGGGCT,0.949 ± 0.016
5,GGAGTTGTTG,0.99 ± 0.009
6,TCCCGCGGCG,1.08 ± 0.041
7,TAATACTTTG,1.04 ± 0.024
8,GTCTAAGTGC,0.996 ± 0.011
9,CAGGTTAAGG,1.01 ± 0.018
10,TTATATATTT,0.993 ± 0.015
11,AGTCTGTGCT,0.97353 ± 0.00097
12,AGAGTTAAAG,0.9917 ± 0.0072
13,CTATGCGGTC,2.39 ± 1.8
14,TTTGGTTTAC,1.01 ± 0.019
15,TTTTTCAAAT,1.04 ± 0.076
16,AATAGGGAGG,0.979 ± 0.025
17,TAATCGTGTT,0.983 ± 0.014
18,TGGGTGTGG,1.015 ± 0.0075
19,CAGTGCGCCT,0.996 ± 0.036
20,TGAGAGGTGG,1 ± 0.036
21,GAAATTATCG,0.9988 ± 0.0034
22,GGGTGCGGCA,0.998 ± 0.019
23,CAGTGCGGCA,1.038 ± 0.0027

row,Sequence,switch fluorescence ratio
1,GGGATTGGGG,1 ± 0.012
2,ACCGAGGGGT,1.06 ± 0.077
3,CCAGGCTAAT,1.03 ± 0.014
4,AAAAGAAACC,1.13 ± 0.048
5,CGTCATTTGG,0.9769 ± 0.0044
6,TACGTGGGTT,0.994 ± 0.051
7,ACTATGATAT,1.018 ± 0.0073
8,ACTGATTTTA,1.01 ± 0.056
9,TTTAATAGCA,1.01 ± 0.025
10,ATTCACTCGT,1.11 ± 0.13
11,TGTGGGAGAG,0.973 ± 0.038
12,ATTCTCGTGC,1.012 ± 0.0074
13,ATAAAGGGCC,0.99 ± 0.012
14,GGGAGTGGGA,1.01 ± 0.011
15,TACCAAAAAA,1.2 ± 0.18
16,TTTGAGTGAC,1.01 ± 0.031
17,ATGTGTTCTG,0.931 ± 0.031
18,CGCGAGGGTT,1.008 ± 0.007
19,GGCTGATTTG,0.961 ± 0.027
20,GAAGGCCCGT,0.991 ± 0.037
21,AGACCTAGAC,1.05 ± 0.025
22,GATGCGGGGC,1.06 ± 0.03
23,ACCGCTCAGT,1.06 ± 0.023

row,Sequence,switch fluorescence ratio
1,TTATTGCCTT,1.03 ± 0.025
2,ATTACTCGCG,1.05 ± 0.012
3,GGGCCGGGAC,0.961 ± 0.01
4,TTCGCGAAAT,1.027 ± 0.01
5,TGGGATTAGA,1.021 ± 0.008
6,GCTTACCCCC,2.09 ± 0.13
7,GTATTATAGG,1.006 ± 0.0042
8,GAAAAAATGT,0.967 ± 0.028
9,CATAAGATGC,1.03 ± 0.027
10,GACGTTTACA,1.17 ± 0.016
11,GGGGTTGATG,0.965 ± 0.022
12,AAGACAGGCC,1.03 ± 0.014
13,GATGGGGGGA,1.01 ± 0.029
14,AATACCAAGA,0.9889 ± 0.0067
15,CGGGGGGCAC,0.999 ± 0.021
16,CGATTGAGCA,0.994 ± 0.031
17,TAAGTTAGAG,0.97 ± 0.024
18,TCGCTGAGTG,1.08 ± 0.12
19,TATTTTGCGG,0.987 ± 0.035
20,TTGACCCGGT,1.06 ± 0.085
21,TTCATTGGTA,1.0186 ± 0.00056
22,TTCCGTTGCG,1.16 ± 0.2
23,GCCTAGTATA,0.9714 ± 0.0049

row,Sequence,switch fluorescence ratio
1,ATAGAACTAG,1 ± 0.011
2,TTTTCGTGCT,0.956 ± 0.05
3,ACTCGAAAAA,1.04 ± 0.026
4,GTGATTTGCG,1.008 ± 0.0036
5,GTCGGGCGTA,0.991 ± 0.016
6,AAGGAACGGC,0.963 ± 0.043
7,AGGTGAGGGG,0.99 ± 0.022
8,GGGCAGACCA,1.01 ± 0.011
9,CGTTTGTGCG,1.01 ± 0.053
10,TAGCGATTAG,1.01 ± 0.036
11,AGTATCATGT,1.02 ± 0.063
12,TTTCATGTCG,0.986 ± 0.1
13,ATTTTTCTCA,1.04 ± 0.062
14,TCCTTTTGTT,1.06 ± 0.15
15,GGCTAAGGAT,1 ± 0.018
16,TGGGTGAAAG,1.02 ± 0.02
17,AGGCAACTAG,1.05 ± 0.027
18,GCTGGGGACG,0.938 ± 0.084
19,GAAACTAGTG,0.996 ± 0.015
20,ATGATGAAGA,1.02 ± 0.019
21,TGCTACAGTT,0.985 ± 0.024
22,CAAAAGGGGG,0.9818 ± 0.005
23,TTAAGCCCGG,1.04 ± 0.066

row,Sequence,switch fluorescence ratio
1,TGACCGAGCG,0.9603 ± 0.0065
2,GAAAAAGTGC,0.989 ± 0.095
3,GAACCGCGTA,1.11 ± 0.036
4,TGTATGTGGT,1 ± 0.048
5,TTAGATAGTA,1.01 ± 0.043
6,ATGTGTAGTT,0.992 ± 0.019
7,TCTTTCCGGT,1.14 ± 0.23
8,GAAGGCGGGG,0.9933 ± 0.0054
9,TTAAGTAGGG,1.01 ± 0.029
10,GGTTTCGGTG,1.008 ± 0.0098
11,AAGGGGACGG,1 ± 0.03
12,GAATTTGAGA,0.997 ± 0.019
13,ACAGCTCGAG,1 ± 0.02
14,TTTGTGGTAT,1.03 ± 0.047
15,CTCGGATAAG,0.9922 ± 0.007
16,GGCGTGTGGT,0.991 ± 0.066
17,ACATGAAGCA,1.06 ± 0.025
18,AGGCTTTCAG,0.9828 ± 0.0011
19,ATTCATCGCT,1.0258 ± 0.00018
20,TTTGCAGGCA,1.03 ± 0.011
21,CTGGTAATGG,1.04 ± 0.033
22,CGATATGTTT,1.01 ± 0.079
23,GGCGGGGGTT,1.03 ± 0.017

row,Sequence,switch fluorescence ratio
1,TGGAGATAGG,0.994 ± 0.016
2,CAAAACGGGG,1.15 ± 0.18
3,TGCATTATTA,0.995 ± 0.049
4,GAGGCTTGTT,0.981 ± 0.01
5,AAAACGTTTA,1.01 ± 0.043
6,AATTGGGGGC,0.98 ± 0.022
7,AGATCAGTGC,0.997 ± 0.011
8,AGTACTCTGT,1.01 ± 0.039
9,TAGAGATGGG,1.02 ± 0.028
10,AAGTATAATA,1.01 ± 0.035
11,CCGGTATATC,2.517 ± 0.025
12,GTAATATGTG,0.991 ± 0.013
13,TAGTGAGGGG,0.979 ± 0.031
14,ATATACGGGG,1.04 ± 0.02
15,AGAAGGATGG,0.983 ± 0.026
16,CTGCTTCCCG,1.15 ± 0.041
17,AGTAGGTAAT,0.9902 ± 0.0071
18,AACTGCTATC,1.22 ± 0.036
19,CGTTATTAGC,1.033 ± 0.01
